These results are taken from patent US20250304973, “HIGH-AFFINITY THROMBIN APTAMERS AND METHODS OF USE” (Ayass Bioscience LLC, published 2025).

The target of one data set is thrombin (Rattus norvegicus, UniProt P18292;P18292 P18292:311-359,P18292:360-617). The data set is described as follows: BLI; biotinylated aptamer on streptavidin sensor, 1:1 fit; printed as "-0.6 nM". To be noted: label: 5' biotin (ELISA, BLI); predicted hairpin, possible G4.
A further data set concerns the target alpha-thrombin (native) (Homo sapiens, UniProt P00734;P00734 P00734:315-363,P00734:364-622). The data set is described as follows: ELONA; 20 mM Tris pH 7.5, 150 mM NaCl, 0.1% BSA, 0.1% Tween 20, salmon sperm DNA, RT; competed by 100-fold unlabeled aptamer.

For GCGGTGTTGCTGGGGTTGGGAGGTTGGAGGAAGCAATCGC (ssDNA) [AYA1809002], the Kd (in general, the constant that tells how readily two partners part at equilibrium) with thrombin was approximately 0.6 nM; with alpha-thrombin (native) it was 10 nM.
